One block for each binder: values may come before it.
Columns and labels:
[1] = molecular target: the molecule itself; assay: SEC-MALS
[2] = molecular target: T1, Nup88^517-742 (tags removed, from the co-purified complexes) (rat, UniProt O08658 517-742); assay: SEC-MALS + other: densitometry of SDS-PAGE bands
T1 sequence: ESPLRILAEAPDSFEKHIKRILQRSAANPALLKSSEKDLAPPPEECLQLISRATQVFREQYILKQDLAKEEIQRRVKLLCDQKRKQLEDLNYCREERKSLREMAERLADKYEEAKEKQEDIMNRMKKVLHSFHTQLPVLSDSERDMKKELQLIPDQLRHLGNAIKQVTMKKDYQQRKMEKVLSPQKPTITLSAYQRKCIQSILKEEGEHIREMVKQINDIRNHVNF

B1: His6-tagged Nup88^517-742 (domain or fragment)
chain: T1 sequence
stoichiometry N [1]: 2

stoichiometry N [2]: 2 Nup62 per Nup88
B2: Nup62^322-525 (tags removed, from the co-purified complexes) (domain or fragment)
chain: AVGTTTGPAMTYAQLESLINKWSLELEDQERHFLQQATQVNAWDRTLIENGEKITSLHREVEKVKLDQKRLDQELDFILSQQKELEDLLSPLEESVKEQSGTIYLQHADEEREKTYKLAENIDAQLKRMAQDLKDIIEHLNMAGGPADTSDPLQQICKILNAHMDSLQWVDQSSALLQRRVEEASRVCESRRKEQERSLRIAFD
